Source: patent US5668264, “High affinity PDGF nucleic acid ligands” (NeXstar Pharmaceuticals, Inc.)

Legend:
PDGF AB [1] = molecular target: T1, PDGF AB (Homo sapiens, UniProt P04085;P01127 P04085:87-211,P01127:82-190); test: filter; among seven highest affinity ligands; data not shown; conditions: tags: R&D Systems 222-AB; chain copies: A/B chain heterodimer (inferred)
PDGF BB = PDGF BB (UniProt P01127 P01127:82-190); test: filter; biphasic, higher affinity component; conditions: chain copies: BB homodimer (inferred)
Sequence of PDGF BB (P01127 82-190, one chain of several): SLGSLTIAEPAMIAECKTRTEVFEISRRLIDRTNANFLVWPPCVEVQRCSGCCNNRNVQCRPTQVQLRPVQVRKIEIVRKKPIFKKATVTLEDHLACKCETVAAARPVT
Description: (§1) 22: 1859), and the equilibrium dissociation constants were determined by nitrocellulose filter binding. […] […]-[…]-3') SEQ ID NO: 88, and 26t (5'-[…] T-3') SEQ ID NO: 89.
(§2) The binding data were analyzed according the formalism described in Jellinek et al., 1994: supra.

PDGF AB [2] = molecular target: T1, PDGF AB; test: filter; biphasic, higher affinity component; conditions: tags: R&D Systems 222-AB; chain copies: A/B chain heterodimer (inferred)
Description: as §1, §2

PDGF AA = PDGF AA (UniProt P04085 P04085:87-211); test: filter; monophasic; conditions: chain copies: AA homodimer (inferred)
From the text: […]-[…]-3') SEQ ID NO: 88, and 26t (5'-[…] T-3') SEQ ID NO: 89.

T1 sequence (P01127 82-190, chain 2 of 2, other chains not shown): as the sequence (P01127 82-190, one chain of several) above

| Binder | binding result (PDGF AB [1]) | Kd (PDGF BB) [pM] | Kd (PDGF AB [2]) [pM] | Kd (PDGF AA) [pM] |
| --- | --- | --- | --- | --- |
| ssDNA ligand 26 (ssDNA) DNA: ATCCGCCTGATTAGCGATACTAGAGGGGAAGTAGGCTGCCTGACTCGAGAGAGTCCTCCCGACTTGAGCAAAATCACCTGCAGGGG | binds | – | – | – |
| ssDNA ligand 40 (ssDNA) DNA: ATCCGCCTGATTAGCGATACTAGTGGAACAGGGCACGGAGAGTCAAACTTTGGTTTCCCCCACTTGAGCAAAATCACCTGCAGGGG | binds | – | – | – |
| TACTCAGGGCACTGCAAGCAATTGTGGTCCCAATGGGCTGAGTAT (ssDNA, 3'-3' inverted T at 3' end) [41t] | – | 56 | 51 | – |
| ssDNA ligand 14 (ssDNA) DNA: ATCCGCCTGATTAGCGATACTAGGCTTGACAAAGGGCACCATGGCTTAGTGGTCCTAGTACTTGAGCAAAATCACCTGCAGGGG | binds | – | – | – |
| CCACAGGCTACGGCACGTAGAGCATCACCATGATCCTGTGT (ssDNA, 3'-3' inverted T at 3' end) [36t] | – | 54 | 82 | 72000 |
| ssDNA ligand 36 (ssDNA) DNA: ATCCGCCTGATTAGCGATACTCCACAGGCTACGGCACGTAGAGCATCACCATGATCCTGTGACTTGAGCAAAATCACCTGCAGGGG | binds | – | – | – |
| TGGGAGGGCGCGTTCTTCGTGGTTACTTTTAGTCCCGT (ssDNA, 3'-3' inverted T at 3' end (described for truncated ligands)) [20t-a] | – | 90 | 82 | – |
| ssDNA ligand 38 (ssDNA) DNA: ATCCGCCTGATTAGCGATACTAAAGTCGTGCAGGGTCCCCTGGAAGCATCTCCGATCCCAGACTTGAGCAAAATCACCTGCAGGGG | binds | – | – | – |
